This test has as its target ancGR2-LBD (ligand-binding domain of the ancestral glucocorticoid receptor 2), Dex-bound. As to the kind of experiment: SPR. For orientation: Surface plasmon resonance follows binding to a sensor surface in real time, without labels.

Regarding “ancGR2-LBD (ligand-binding domain of the ancestral glucocorticoid receptor 2), Dex-bound (domain or fragment)”, the Kd was 17.4 µM.

In general, Kd refers to the free concentration of one partner at which half of the binding sites on the other are occupied at equilibrium, for simple one-to-one binding. A higher Kd goes with a looser complex.

(Values after paper PMC13281853.)
